B1: CD29 shDNA construct: negative control shDNA construct targeting CD29, target sequence ggtagaaagtcgggacaaa (SEQ ID NO: 132) (nucleic acid)
sense: CCGGGGTAGAAAGTCGGGACAAATTCAAGAGATTTGTCCCGACTTTCTACCTTTTT
antisense: AATTAAAAAGGTAGAAAGTCGGGACAAATCTCTTGAATTTGTCCCGACTTTCTACC
B2: cMAC BL5: shDNA construct in pLKO.1 lentiviral vector, target sequence gatttaagcctccctaaga (SEQ ID NO: 114) (nucleic acid)
sense: CCGGGATTTAAGCCTCCCTAAGATTCAAGAGATCTTAGGGAGGCTTAAATCTTTTT
antisense: AATTAAAAAGATTTAAGCCTCCCTAAGATCTCTTGAATCTTAGGGAGGCTTAAATC
B3: cMAC BL4: shDNA construct in pLKO.1 lentiviral vector, target sequence ggttatctgttgcccaaga (SEQ ID NO: 111) (nucleic acid)
sense: CCGGGGTTATCTGTTGCCCAAGATTCAAGAGATCTTGGGCAACAGATAACCTTTTT
antisense: AATTAAAAAGGTTATCTGTTGCCCAAGATCTCTTGAATCTTGGGCAACAGATAACC
B4: cMAC MB4: shDNA construct in pLKO.1 lentiviral vector, target sequence ccttgggcuggcactcttatt (SEQ ID NO: 129) (nucleic acid)
sense: CCGGCCTTGGGCUGGCACTCTTATTCAAGAGATAAGAGTGCCAGCCCAAGGTTTTT
antisense: AATTAAAAACCTTGGGCTGGCACTCTTATCTCTTGAATAAGAGTGCCAGCCCAAGG
B5: cMAC BL9: shDNA construct in pLKO.1 lentiviral vector, target sequence caggaatgtcctccaacca (SEQ ID NO: 126) (nucleic acid)
sense: CCGGCAGGAATGTCCTCCAACCATTCAAGAGATGGTTGGAGGACATTCCTGTTTTT
antisense: AATTAAAAACAGGAATGTCCTCCAACCATCTCTTGAATGGTTGGAGGACATTCCTG
B6: cMAC BL2: shDNA construct in pLKO.1 lentiviral vector, target sequence gcctttgttagatctatca (SEQ ID NO: 105) (nucleic acid)
sense: CCGGGCCTTTGTTAGATCTATCATTCAAGAGATGATAGATCTAACAAAGGCTTTTT
antisense: AATTAAAAAGCCTTTGTTAGATCTATCATCTCTTGAATGATAGATCTAACAAAGGC
B7: cMAC BL3: shDNA construct in pLKO.1 lentiviral vector, target sequence catctttgttggcctacga (SEQ ID NO: 108) (nucleic acid)
sense: CCGGCATCTTTGTTGGCCTACGATTCAAGAGATCGTAGGCCAACAAAGATGTTTTT
antisense: AATTAAAAACATCTTTGTTGGCCTACGATCTCTTGAATCGTAGGCCAACAAAGATG
B8: cMAC BL8: shDNA construct in pLKO.1 lentiviral vector, target sequence gtcaggtgccacatgagaa (SEQ ID NO: 123) (nucleic acid)
sense: CCGGGTCAGGTGCCACATGAGAATTCAAGAGATTCTCATGTGGCACCTGACTTTTT
antisense: AATTAAAAAGTCAGGTGCCACATGAGAATCTCTTGAATTCTCATGTGGCACCTGAC
B9: cMAC BL6: shDNA construct in pLKO.1 lentiviral vector, target sequence actagaatgttgacctcga (SEQ ID NO: 117) (nucleic acid)
sense: CCGGACTAGAATGTTGACCTCGATTCAAGAGATCGAGGTCAACATTCTAGTTTTTT
antisense: AATTAAAAAACTAGAATGTTGACCTCGATCTCTTGAATCGAGGTCAACATTCTAGT
B10: cMAC BL7: shDNA construct in pLKO.1 lentiviral vector, target sequence ccgggtttccctattccaa (SEQ ID NO: 120) (nucleic acid)
sense: CCGGCCGGGTTTCCCTATTCCAATTCAAGAGATTGGAATAGGGAAACCCGGTTTTT
antisense: AATTAAAAACCGGGTTTCCCTATTCCAATCTCTTGAATTGGAATAGGGAAACCCGG

Experiments:
Format in all cases: cell-based
[1] = test system: cMAC mediated translocation of TORC1-eGFP; test: TORC1-eGFP translocation in HeLa:TORC1-eGFP cells transduced with human cMAC; conditions: EGTA in the medium; reversed by excess calcium (data not shown)
NFAT-2 = NFAT-2 translocation in Jurkat cells; conditions: PMA alone
Method: (§1) Fixing and staining Jurkat cells, NFAT translocation assay: Following treatment Jurkat cells were attached to 96 well plates using the Becton Dickinson Cell-Tak cell adhesive. The suspension cells were centrifuged (800×G) for 5 min onto precoated plates (as per manufacturer's instruction). The attached cells were permeabilized in 3.7% formaldehyde, 0.5% Triton X100 and washed twice with wash buffer (0.5% Triton X100 in PBS) and blocked with 2% BSA, 0.1% Triton X100 in PBS. The cells were incubated in primary antibodies NFAT-1 (Cellomics K01-0011-1 diluted 1:100) and NFAT-2 (Affinity Bioreagents MA3-024 diluted 1:250) in blocking buffer for 1 hour at room temperature. Cells were washed twice with wash buffer and incubated with secondary goat anti-mouse IgG conjugated to Alexa Fluor 488 GαM (Cellomics K01-0011-1 reagents antibody diluted 1:2000, and Hoechst dye 1:2000) in blocking buffer. Cells were washed once with PBS and imaged. […]
(§2) The effect of cMAC on the nuclear translocation of the transcription factor NFAT and its dependence on calcineurin was also examined. […] While NFAT-1 and NFAT-2 were detected in the cytoplasm of control virus infected cells, both isoforms of NFAT were localized primarily in the nucleus in a large proportion of cMAC transduced cells. […]

IL-2 [2] = test: Jurkat T-cell activation, IL-2 protein (ELISA); conditions: Jurkat cells, PMA alone
Method: (§3) Transduction and sensitization of Jurkat cells: Jurkat cells were maintained in RPMI 1640 (GIBCO 21870-076) 10% FC1 Fetal clone1 (Hyclone), 1% Pen/Strep, 1% Glutamax1, 0.1% beta mercaptoethanol. Prior to transduction the cells were switched to transduction media which contains: RPMI 1640 (above) fortified with 2.25 g glucose 1% antibiotic/antimycotic, 1% 1M Hepes (Gibco), 1% 100 mM sodium pyruvate, 10 ml 7.5% Sodium Bicarbonate 10% Fetal Clone serum 1. Cells were seeded 5×104 in transduction media combined with virus (volume in legend) and 4 ug/ml polybrene final concentration and centrifuged at ˜800×g for 3 hrs. For activation of ICOS and IL-2 expression experiments cells were transduced with 50 μl of retroviral supernatant (QL-GW-Final-Kan) and 48 hours post transduction the media was fortified with PMA (phorbol 12-myristate 13-acetate) 10 ng/ml and 24 hours after addition the cells or media were removed for ICOS or IL-2 measurements. […]
(§4) Analysis of ICOS surface marker and IL-2 protein expression: 1.5 uL of ICOS-PE (BD-Parmingen 557802) was combined with ˜1×10^6 Jurkat cells and incubated on ice for 30 min. Cells were centrifuged ˜500×g 5 min and washed 2×PBS and the mean channel flourescence determined using flow cytometry (BD FACSCaliber). IL-2 levels were measured using the QuantiGlo IL-2 Elisa kit (R&D Systems).
(§5) We assessed the role of TRPV6 and cMAC in a T-cell activation screen. […]

NFAT-1 = NFAT-1 translocation in Jurkat cells; conditions: PMA alone
Method: as §1, §2

ICOS = test: Jurkat T-cell activation, ICOS surface marker expression; conditions: Jurkat cells, PMA alone
Method: as §3, §4, §5

CD29 mRNA = CD29 mRNA knockdown by shDNA construct
cMAC mRNA = cMAC mRNA knockdown in shDNA transduced Jurkat cells; conditions: for Average cMAC mRNA % Inhib.: 3 days post infection (2 days post puromycin selection)
Method: (§6) Puromycin selection of shDNA transduced Jurkat cells and normalization for cell survival: The LKO viral vector used in this study contains a puromycin selection marker. Jurkat cells infected with shDNA constructs (LKO.1) were put under puromycin selection 24 hrs post infection by addition of puromycin (2 μg/ml) and maintained for the duration of the experiment (6 days post infection, 3 days for mRNA quantitation). To account for differences in cell number after puromycin selection (possibly due to variations in viral titer), we adopted a cellular ATP assay which is proportional to cell number (Cell Titer-Glo Luminescent Assay Kit, Promega). The assay was performed as per the manufacturer's instruction. A standard curve was generated for each cell type to determine linearity for the assay. The IL-2 concentrations were normalized to cell number by dividing the calculated IL-2 concentration by the rLU values for the cell titer-glo assay, which is equivalent to IL-2 expression/cell number. The mRNA expression levels were determined 3 days post infection.
Determination of mRNA knockdown for cMAC: Jurkat mRNA expression levels were determined 3 days post infection (2 days post puromycin selection).
To determine the specificity of the shDNA construct, the reduction of cMAC mRNA was measured for each construct (Table 8) and compared to the inhibition of IL-2 observed. The pGL3-Luc and CD29 shDNA constructs served as negative controls. […] In those instances it may be that the shDNA is causing decreases in the expression of cMAC protein through microRNA effects. Thus, it appears that with the exception of 2 constructs (BL6 and BL8) the phenotypically active IL-2 constructs correlate with reduced cMAC mRNA levels.

IL-2 [3] = test: IL-2 production of TCR/CD28 activated Jurkat T-cells after viral shDNA transduction; conditions: TCR/CD28 activated 6 days post transduction; for Average IL-2 % inhibition: pLKO.1 shDNA, puromycin selected, IL-2 normalized to viable cells
Method: as §4
Jurkat cell activation for shDNA inhibition studies: To assess shDNA efficacy, Jurkat cells (15000) were transduced with 10 μL LKO virus as described and 24 hours post transduction the media was fortified with puromycin (see below). Six days post transduction half the cells were activated with antibodies targeting TCR and CD28 receptors bound to a 96 well plate surface and incubated overnight and the media was collected for IL-2 determination. The remaining cells were used to determine the fraction of viable cells in each well using the Cell Titer-Glo assay (see below).
The activation plates were prepared by coating goat anti-mouse IgG, Fcγ fragment specific antibody (Jackson ImmunoResearch Laboratories) 55 μl per well at a final concentration of 10 μg/ml in PBS. The plates were incubated 3 hours at room temperature. Excess IgG was removed and plates were blotted. Plates were blocked with 300 μL 2% BSA/PBS (BSA, Fraction V lyophilizate, Roche) and incubated for 2 hours at room temperature. The plates were washed 3 times with PBS and stimulating antibodies anti-TCR 0.01 ug/ml (BD Biosciences 347770 clone WT31) and anti-CD28 0.3 ug/ml (BD Pharmingen 555725) in 2% BSA/PBS final volume 50 μL/well. Plates were incubated overnight and washed 3 times with PBS prior to addition of cells for activation.
as §6
To assess whether cMAC was essential for T-cell activation, we designed several shDNA constructs targeting cMAC. In these experiments Jurkat T-cells were transduced with viral constructs targeting cMAC or another unrelated gene. 6 days post transduction, the cells were activated with TCR/CD28 antibodies and the level of cMAC mRNA and IL-2 secreted into the media was measured. […] FIG. 10.

Molecule | Average cMAC mRNA % Inhib. (cMAC mRNA) | Average IL-2 % inhibition (IL-2 [3]) | further results
O=C(O)CN(CCOCCOCCN(CC(=O)O)CC(=O)O)CC(=O)O [EGTA] |  |  | effect on cMAC induced nuclear TORC1 translocation [1]: blocked
CCCCCCCCCCCCCC(=O)O[C@@H]1[C@@H](C)[C@@]2(O)[C@@H](C=C(CO)C[C@]3(O)C(=O)C(C)=C[C@@H]23)[C@@H]2C(C)(C)[C@]12OC(C)=O [PMA, phorbol 12-myristate 13-acetate] |  |  | effect on NFAT-2 translocation (NFAT-2): no effect; upregulation of IL-2 (IL-2 [2]): did not upregulate; effect on NFAT-1 translocation (NFAT-1): no effect; upregulation of ICOS expression levels (ICOS): did not upregulate
B1 |  |  | reduction of CD29 mRNA (CD29 mRNA): potently reduced CD29 mRNA; effect on cMAC message (cMAC mRNA): no effect
B2 | 67.0% | 72.2% | 
B3 | 56.2% | 65.7% | 
B4 | 65.9% | 78.9% | 
B5 | 54.8% | 37.8% | 
B6 | 72.6% | 75.5% | 
B7 | 30.1% | 52.1% | 
B8 | 70.1% | 8.03% | Average cMAC mRNA % Inhib. (cMAC mRNA; listed as BL8): 70%; IL-2 reduction (IL-2 [3]): without any IL-2 reduction
B9 | 35.8% | −9.34% | Average cMAC mRNA % Inhib. (cMAC mRNA; listed as BL6): 36%; IL-2 reduction (IL-2 [3]): without any IL-2 reduction
B10 | 66.4% | 40.8% | 

Source: patent US20090136506A1, “Conserved Membrane Activator of Calcineurin (CMAC), a Novel Therapeutic Protein and Target” (priority 2005, published 2009)
